{"source": "paper PMC2768832", "about": "(The Journal of Cell Biology, 2009)", "biological_target": "p97/VCP-His, recombinant full-length mouse p97/VCP (mouse, UniProt Q01853 1-806)", "sequence (Q01853 whole entry)": "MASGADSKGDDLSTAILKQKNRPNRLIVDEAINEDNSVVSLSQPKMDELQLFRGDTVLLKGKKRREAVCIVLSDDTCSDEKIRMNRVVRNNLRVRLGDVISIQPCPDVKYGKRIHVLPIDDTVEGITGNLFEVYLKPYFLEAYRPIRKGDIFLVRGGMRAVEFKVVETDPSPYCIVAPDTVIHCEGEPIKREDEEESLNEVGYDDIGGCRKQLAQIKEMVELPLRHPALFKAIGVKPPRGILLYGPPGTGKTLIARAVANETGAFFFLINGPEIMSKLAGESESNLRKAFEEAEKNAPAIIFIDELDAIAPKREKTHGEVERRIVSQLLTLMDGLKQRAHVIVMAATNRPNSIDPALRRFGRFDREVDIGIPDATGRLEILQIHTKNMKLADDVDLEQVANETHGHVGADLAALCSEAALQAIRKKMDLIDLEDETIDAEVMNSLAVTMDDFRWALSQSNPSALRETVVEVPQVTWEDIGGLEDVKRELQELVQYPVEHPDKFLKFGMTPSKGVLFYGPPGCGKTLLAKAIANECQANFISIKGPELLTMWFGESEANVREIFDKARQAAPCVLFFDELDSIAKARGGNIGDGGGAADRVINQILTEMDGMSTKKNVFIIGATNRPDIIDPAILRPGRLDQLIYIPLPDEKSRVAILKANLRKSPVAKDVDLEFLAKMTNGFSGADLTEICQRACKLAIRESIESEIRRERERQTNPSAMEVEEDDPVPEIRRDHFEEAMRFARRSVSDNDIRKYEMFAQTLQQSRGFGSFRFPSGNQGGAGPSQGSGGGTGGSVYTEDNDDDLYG", "assay": "pull-down"}
{"binder": "erasin-His, recombinant full-length human erasin (natural protein) MLWFQGAIPAAIATAKRSGAVFVVFVAGDDEQSTQMAASWEDDKVTEASSNSFVAIKIDTKSEACLQFSQIYPVVCVPSSFFIGDSGIPLEVIAGSVSADELVTRIHKVRQMHLLKSETSVANGSQSESSVSTPSASFEPNNTCENSQSRNAELCEIPPTSDTKSDTATGGESAGHATSSQEPSGCSDQRPAEDLNIRVERLTKKLEERREEKRKEEEQREIKKEIERRKTGKEMLDYKRKQEEELTKRMLEERNREKAEDRAARERIKQQIALDRAERAARFAKTKEEVEAAKAAALLAKQAEMEVKRESYARERSTVARIQFRLPDGSSFTNQFPSDAPLEEARQFAAQTVGNTYGNFSLATMFPRREFTKEDYKKKLLDLELAPSASVVLLPAGRPTASIVHSSSGDIWTLLGTVLYPFLAIWRLISNFLFSNPPPTQTSVRVTSSEPPNPASSSKSEKREPVRKRVLEKRGDDFKKEGKIYRLRTQDDGEDENNTWNGNSTQQM", "values": [{"measurement": "binding result", "value": "binds"}]}
